In US6350573B1, “Methods for identifying herbicidal agents that inhibit D1 protease” (E. I. du Pont de Nemours and Company, priority 1998, dated 2002):
Where a SMILES comes first, the peptide text is derived from it. The star is where a group is joined. Cbz = O=C(OCc1ccccc1)*; CH2Cl = ClC*

How the values were obtained:
[1] = system: wheat D1 protease; experiment: In vitro high-throughput assay with LF-1 thylakoid membrane fragments containing pre-D1, detecting the mature D1 enzyme product; assay type: biochemical; settings: 7 mM Z-LDLA-CMK; D1 protease pre-incubated with it for 1 h at pH 7.0; same assay without inhibitor 0.141 OD; without D1P 0.023 OD
Source text: The assay was capable of detecting both type of products. Because this assay used isolated thylakoid membrane containing the D1 pre-protein substrate the assay could be run at a pH similar to that found in the whole plant.
The PSII-enriched thylakoid membrane fragment was isolated from Scenedesmus LF-1 mutant cells using a mild TRITON X-100-treatment as follows:
Scenedesmus cells were broken in a “bead-beater” (Biospec Products, Bartlesville, Okla.) in an ice-water bath with 1-mm diameter glass beads using 10 bursts of 45 sec each. […]
When using the type 2 HRP conjugated primary antibody […] of colorimetric substrate, TMB (Kirkgaard & Perry Laboratories, Inc., Gaithersburg, Md.) or fluorescent substrate, N-acetyl-3,7-dihydroxyphenoxazine (A6550, Molecular Probes, Inc., Eugene, Oreg.) or chemiluminescence substrate, BM Chemiluminescence ELISA Reagent (Boehringer Mannheim Corp., Indianapolis, Ind.) was added to each well. […] Next the substrate was transfered to a regular plastic 96-well microtiter plate using the manifold and vacuum and then read for absorption or fluorescence or chmiluminescence intensity. […]

[2] = molecular target: D1 pre-protein (unprocessed D1 polypeptide) of the Scenedesmus obliquus LF-1 mutant, in PSII core complexes or thylakoid membrane fragments
[3] = molecular target: T1, internally quenched fluorescent substrate Ac-NAHN(K-Dnp)PLDLAAVE(K-Mca)PSING-OH
T1 chain: AHNKPLDLAAVEKPSING

Molecule: CC(C)C[C@H](NC(=O)OCc1ccccc1)C(=O)N[C@@H](CC(=O)O)C(=O)N[C@@H](CC(C)C)C(=O)N[C@@H](C)C(=O)CCl [Z-LDLA-CMK, Z-Leu-Asp-Leu-Ala-CH2Cl] (Cbz-LDLA-CH2Cl)
- Type2 AB and TMB, Absorption change, With D1P [1]: 0.081 OD

B1: D1 protease from Scenedesmus obliquus (protein)
chain: VTSEQLLFLEAWRAVDRAYVDKSFNGQSWFKLRETYLKKEPMDRRAQTYDAIRKLLAVLDDPFTRFLEPSRLAALRRGTAGSVTGVGLEITYDGGSGKDVVVLTPAPGGPAEKAGARAGDVIVTVDGTAVKGLSLYDVSDLLQGEADSQVEVVLHAPGAPSNTRTLQLTRQKVTINPVTFTTCSNVAAAALPPGAAKQQLGYVRLATFNSNTTAAAQQAFTELSKQGVAGLVLDIRNNGGGLFPAGVNVARMLVDRGDLVLIADSQGIRDIYSADGNSIDSATPLVVLVNRGTASASEVLAGALKDSKRGLIAGERTFGKGLIQTVVDLSDGSGVAVTVARYQTPAGVDINKIGVSPDVQLDPEVLPTDLEGVCRVLGSDAAPRLFG
- microtiter plate ELISA of D1 protease activity (color reaction, percent of pre-D1 cleaved) [2]: the intensity of the color reaction is shown to be proportional to enzyme concentration up to approximately 20% of pre-D1 cleaved

B2: wheat D1 protease purified from wheat leaves (Triticum aestivum, var. Fidel) (protein)
chain: LTEENLLFLEAWRAVDRAYYDKSFNGQSWFRYRERALRDDPMNTRQETYAAIKKMLATLDDPFTRLLEPEKFKSLRSGTQGALTGVGLSIGYPLALKGSPAGLSVMSAAPGGPAEKAGIVSGDVILAIDDTSAQDMDIYDAADRLQGPEGSSIDLTILSGADTRHVVLKRERYTLNPVRSRMCEIPGSEDSSKIGYIKLTTFNQNAAGSVKEAIKKLREKNVKAFVLDLRNNSGGLFPEGIEIAKIWMDKGVIVYICDSRGVRDIYEADGASTIAASEPLVVLVNKGTASASEILAGALKDNKRAVVYGEPTYGKGKIQSVFALSDGSGLAVTVARYETPAHTDIDKVGVTPDRPLPASFPTDEDGFCSCLRDPASCNLNAARLFVRS
- fluorescence intensity of the internally quenched substrate (excitation 320 nm, emission 409 nm) [3]: samples containing active enzyme were measured at 3000 fluorescence units
- Type1 AB and ATTOPHOS (Fluorescence intensity), With D1P [2]: 1070 RU
- Type1 AB and PNP (Absorbance OD 450-650), With D1P [2]: 0.365 OD
- Type2 AB and A6550 (Fluorescence intensity), With D1P [2]: 263 RU
- Type2 AB and BM (Chemiluminescence intensity), With D1P [2]: 33 RU
- Type2 AB and TMB (Absorbance at OD 650-450), With D1P [2]: 0.141 OD
- fluorescamine fluorescence of the released C-terminal D1-tail, Well with D1 protease [2]: 515 ± 10 relative units

B3: recombinant wheat D1 protease expressed in E. coli from pET-32a(+) (thioredoxin-D1 protease fusion, refolded) (protein)
chain: B2 chain
- specific activity in the microtiter plate ELISA assay [2]: The specific activity of the recombinant enzyme, expressed in relative units, is close to that of the natural enzyme isolated from wheat leaves
